What was measured:
[1] = target: the molecule itself; experiment: sedimentation equilibrium, analytical ultracentrifuge, 0.8% β-OG (self-association)
Procedure: Sedimentation equilibrium (SE) runs were performed at various speeds at 20° C. with sample volume of 100 μl using an Optima XL-I analytical ultracentrifuge (Beckman-Coulter, Palo Alto). The initial protein concentrations were 0.2-0.6 mg/ml in 20 mM Tris-HCl pH 7.5, 5% glycerol, 1 mM TCEP, 0.8% β-OG and 1 mM MgCl₂ (buffer B). The equilibrium absorbance profiles were recorded after 20 hours at 280 nm.
Analysis of the profiles was performed with the Beckman software package and the Schuck program [sequence] […] All solvent densities matched to the detergent densities by addition of sucrose, or not matched, were measured with a PAAR density meter, type DMA4500 (Anton Paar, Graz, Austria). The detergent densities were assessed in the buffer without protein from separate SE runs where the interference detection optics was used for the non absorbing detergents. […] Because of the sucrose addition the hydration state of the protein has to be considered. […] Thus, this value was used. […] The profiles were analysed by a model with various numbers of bound micelles. […] Thus, the analysis was carried out under this assumption providing a vbar value of 0.791 cm³/g. Similarly, the non-density-matched sample with β-OG under the cmc was analysed with vbar=0746 cm³/g.

[2] = target: human 2,3-oxidosqualene:lanosterol cyclase with C-terminal myc-epitope and 6xHis-tag (human) (UniProt P48449); experiment: self-association; sedimentation equilibrium AUC at 14,000 rpm, 0.06% LDAO, supernatant at equilibrium
[3] = target: human 2,3-oxidosqualene:lanosterol cyclase with C-terminal myc-epitope and 6xHis-tag (human) (UniProt P48449); experiment: self-association; sedimentation equilibrium AUC at 14,000 rpm, 0.2% Triton X-100, supernatant at equilibrium
[4] = target: human 2,3-oxidosqualene:lanosterol cyclase with C-terminal myc-epitope and 6xHis-tag (human) (UniProt P48449); experiment: self-association; sedimentation equilibrium AUC at 14,000 rpm, 0.016% DDM, supernatant at equilibrium
[5] = target: human 2,3-oxidosqualene:lanosterol cyclase with C-terminal myc-epitope and 6xHis-tag (human) (UniProt P48449); experiment: self-association; sedimentation equilibrium AUC at 14,000 rpm, 0.6% C8E5, supernatant at equilibrium
[6] = target: human 2,3-oxidosqualene:lanosterol cyclase with C-terminal myc-epitope and 6xHis-tag (human) (UniProt P48449); experiment: self-association; sedimentation equilibrium AUC at 14,000 rpm, 0.2% β-OG (below CMC), supernatant at equilibrium
[7] = target: human 2,3-oxidosqualene:lanosterol cyclase with C-terminal myc-epitope and 6xHis-tag (human) (UniProt P48449); experiment: self-association; sedimentation equilibrium AUC at 14,000 rpm, 0.8% β-OG, supernatant at equilibrium

dimer [%] [2] | monomer [%] [2] | monomer [%] [3] | dimer [%] [4] | monomer [%] [4] | tetramer [%] [4] | monomer [%] [5] | dimer [%] [6] | monomer [%] [6] | tetramer [%] [6] | trimer [%] [6] | monomer [%] [7] | Binder | binding result [1]
 |  |  |  |  |  |  |  |  |  |  |  | human 2,3-oxidosqualene:lanosterol cyclase, wild-type without tag (enzyme, Expressed in P. pastoris from pPICZB; the whole entry is named; also called hOSC wildtype; hOSC wild-type) TEGTCLRRRGGPYKTEPATDLGRWRLNCERGRQTWTYLQDERAGREQTGLEAYALGLDTKNYFKDLPKAHTAFEGALNGMTFYVGLQAEDGHWTGDYGGPLFLLPGLLITCHVARIPLPAGYREEIVRYLRSVQLPDGGWGLHIEDKSTVFGTALNYVSLRILGVGPDDPDLVRARNILHKKGGAVAIPSWGKFWLAVLNVYSWEGLNTLFPEMWLFPDWAPAHPSTLWCHCRQVYLPMSYCYAVRLSAAEDPLVQSLRQELYVEDFASIDWLAQRNNVAPDELYTPHSWLLRVVYALLNLYEHHHSAHLRQRAVQKLYEHIVADDRFTKSISIGPISKTINMLVRWYVDGPASTAFQEHVSRIPDYLWMGLDGMKMQGTNGSQIWDTAFAIQALLEAGGHHRPEFSSCLQKAHEFLRLSQVPDNPPDYQKYYRQMRKGGFSFSTLDCGWIVSDCTAEALKAVLLLQEKCPHVTEHIPRERLCDAVAVLLNMRNPDGGFATYETKRGGHLLELLNPSEVFGDIMIDYTYVECTSAVMQALKYFHKRFPEHRAAEIRETLTQGLEFCRRQQRADGSWEGSWGVCFTYGTWFGLEAFACMGQTYRDGTACAEVSRACDFLLSRQMADGGWGEDFESCEERRYVQSAQSQIHNTCWAMMGLMAVRHPDIEAQERGVRCLLEKQLPNGDWPQENIAGVFNKSCAISYTSYRNIFPIWALGRFSQLYPERALAGHP | no binding
6% | 94% | 100% | 23% | 70% | 7% | 100% | 71% | 0% | 18% | 11% | 100% | human 2,3-oxidosqualene:lanosterol cyclase with C-terminal myc-epitope and 6xHis-tag (enzyme) TEGTCLRRRGGPYKTEPATDLGRWRLNCERGRQTWTYLQDERAGREQTGLEAYALGLDTKNYFKDLPKAHTAFEGALNGMTFYVGLQAEDGHWTGDYGGPLFLLPGLLITCHVARIPLPAGYREEIVRYLRSVQLPDGGWGLHIEDKSTVFGTALNYVSLRILGVGPDDPDLVRARNILHKKGGAVAIPSWGKFWLAVLNVYSWEGLNTLFPEMWLFPDWAPAHPSTLWCHCRQVYLPMSYCYAVRLSAAEDPLVQSLRQELYVEDFASIDWLAQRNNVAPDELYTPHSWLLRVVYALLNLYEHHHSAHLRQRAVQKLYEHIVADDRFTKSISIGPISKTINMLVRWYVDGPASTAFQEHVSRIPDYLWMGLDGMKMQGTNGSQIWDTAFAIQALLEAGGHHRPEFSSCLQKAHEFLRLSQVPDNPPDYQKYYRQMRKGGFSFSTLDCGWIVSDCTAEALKAVLLLQEKCPHVTEHIPRERLCDAVAVLLNMRNPDGGFATYETKRGGHLLELLNPSEVFGDIMIDYTYVECTSAVMQALKYFHKRFPEHRAAEIRETLTQGLEFCRRQQRADGSWEGSWGVCFTYGTWFGLEAFACMGQTYRDGTACAEVSRACDFLLSRQMADGGWGEDFESCEERRYVQSAQSQIHNTCWAMMGLMAVRHPDIEAQERGVRCLLEKQLPNGDWPQENIAGVFNKSCAISYTSYRNIFPIWALGRFSQLYPERALAGHLEQKLISEEDLNSAVDHHHHHH | 
